Experimental findings from KR20110049766A (dated 2011) are described below.

Assay [1] concerns the target T1, MBP-IL-15 fusion protein (recombinant human IL-15 fused to maltose-binding protein) (human, UniProt P40933 49-162).
T1 construct: Expressed in E. coli TG1 and purified on amylose resin; also called recombinant human IL-15 antigen
In words: competitive inhibition ELISA; Fab-pIII supernatant pre-incubated with soluble antigen, then on coated antigen; Kd from IC50 (Klotz plot).

The target of assay [2] is T1, MBP-IL-15 fusion protein (recombinant …). Briefly: ELISA (Fig. 3a), Fab-pIII supernatant on coated antigen. A general note: In an ELISA, binding on a coated surface is turned into a signal by an enzyme label.
Assay [3] concerns the target T2, recombinant human TNF-alpha (human, UniProt P01375 77-233).
T2 construct: Bought protein; also called TNF-α; tumor necrosis factor-alpha
In words: competitive inhibition ELISA; Fab-pIII supernatant pre-incubated with soluble antigen, then on coated antigen; Kd from IC50 (Klotz plot).

T1 sequence (P40933 49-162 limits assumed): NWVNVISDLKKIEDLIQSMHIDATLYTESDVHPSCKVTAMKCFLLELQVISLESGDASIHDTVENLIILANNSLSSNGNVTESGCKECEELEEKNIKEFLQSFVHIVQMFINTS
T2 sequence (P01375 77-233 limits assumed): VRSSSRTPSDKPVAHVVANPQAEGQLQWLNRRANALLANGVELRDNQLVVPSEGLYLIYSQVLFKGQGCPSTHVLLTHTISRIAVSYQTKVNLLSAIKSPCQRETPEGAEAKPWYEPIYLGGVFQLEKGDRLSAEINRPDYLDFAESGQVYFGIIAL

B1: anti-IL-15 Fab clone 4H10 (Fab, V domains shown)
VH: EVQLVQSGGGLVEPGGSLRLSCAASGLSISDAWMHWVRQVPGKGLEWVGLITNKTGGGTIIYAAPVKGRFTISRDDSKNTLYLQMNSLKTEDTAMYYCVTTYDQGYWGQGTMVTVSS
VL: ELVLTQSPSSLSASVGDRVTITCRASQSISRYLNWYQQKPGKAPKLLIYGASRLESGVPSRFSGSGSGTDFTLTISSLQPEDFATYYCQQSDSVPVTFGQGTRLEIKR
notes: Tested as a soluble Fab-pIII fusion molecule in E. coli culture supernatant (human Fd = VH+CH1 fused to phage pIII, human kappa light chain); Only the variable domains are tied to the clone; also called 3E3; 4H10 (3E3)
For the molecule B1, in assay [1], the equilibrium dissociation constant (Kd) (in general, the constant that tells how readily two partners part at equilibrium) is 100 nM.

B2: anti-IL-15 Fab clone 1H3 (Fab, V domains shown)
VH: B1 VH
VL: ELVLTQSPGTLSLSPGERATLSCRASQSIFNYVAWYQQKPGQAPRLLIYDASNRATGIPARFSGSGSGTDFTLTISSLEPEDFAVYYCQQRSKWPPTWTFGQGTRVDIKR
notes: Tested as a soluble Fab-pIII fusion molecule in E. coli culture supernatant; only the variable domains are tied to the clone
On to B2, for which the dissociation constant Kd in assay [1] turned out to be 700 nM.

B3: anti-IL-15 Fab clone 3C1 (Fab, V domains shown)
VH: B1 VH
VL: DIVMTQSPSSLSASVGDRVPITCRASQGIRNDLGWYQQKPGKAPKLLIYAASSLQSGVPSRFSGSGSGTDFTLTISSLQPEDFATYYCLQDYNYPWTFGQGTQVEIKR
notes: Tested as a soluble Fab-pIII fusion molecule in E. coli culture supernatant; only the variable domains are tied to the clone; also called 4H7; 3C1 (4H7)
Regarding B3, the binding result in assay [2] is listed as “binds”.

B4: anti-TNF-α Fab clone TNFa#2 (Fab, V domains shown)
VH: EVQLVQSGGGVVQPGRSLRLSCAASGFSFGDYAMHWVRQAPGKGLEWVSGISWNSRIIGYADSVKGRFTISRDKAKNSLYLQMSSLRTEDTAVYYCARMGGDSSGYYSEPYYYFDYWGQGTLVTVSS
VL: B1 VL
notes: Tested as a soluble Fab-pIII fusion molecule in E. coli culture supernatant; only the variable domains are tied to the clone; also called TNFα#2; #5
Regarding B4, the Kd in assay [3] was determined as 200 nM.

B5: anti-IL-15 Fab clone 8C5 (Fab, V domains shown)
VH: QVQLLQSGPGLVKPSQTLSLTCAISGDSVSSNSAAWNWIRQSPSRGLEWLGRTYYRSKWYNDYAVSVKSRITINPDTSKNQFSLQLNSVTPEDTAVYYCASHKDPGSSWYRQPFDYWGQGTMVTVS
VL: B1 VL
notes: as for B2
For the molecule B5, the binding result in assay [2] was “binds”.

B6: anti-TNF-α Fab clone TNFa#1 (Fab, V domains shown)
VH: QVQLLQSGGGLVKPGGSLRLSCVASGFTFSSYWMSWVRQAPGKGLEWIGEINHSGSTSYNPSLKSRVTISIDTSKNQFSLKLNSVATADTAVYYCARLGWTMVRGVKYYYGMDVWGQGTMVTVSS
VL: B1 VL
notes: Tested as a soluble Fab-pIII fusion molecule in E. coli culture supernatant; only the variable domains are tied to the clone; also called TNFα#1; #4
Take B6: the Kd in assay [3] worked out at 1000 nM.
